Results from publication PMC11566999.

Target: T1, YTH-YPet (UniProt Q9Y5A9 380-579)
T1 sequence: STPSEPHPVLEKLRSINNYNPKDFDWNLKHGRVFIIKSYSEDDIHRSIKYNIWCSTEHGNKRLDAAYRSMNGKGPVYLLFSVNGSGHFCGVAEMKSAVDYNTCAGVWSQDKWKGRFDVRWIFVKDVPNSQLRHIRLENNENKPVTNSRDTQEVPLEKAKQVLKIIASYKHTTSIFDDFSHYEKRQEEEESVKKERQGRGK
Experiment: EMSA

B1: aRNA (structured_RNA)
RNA: CCGGACUGUACAUGAGGAUCACCCAUGU
Q: Does B1 bind?
A: Result: no binding
